Reference: US11986516B2, “Compositions and methods for treatment of SARS-COV-2” (priority 2021, dated 2024)

Key:
[1] = Visual solubility assessment of ACE-2 protein in liquid excipients; format: physicochemical; conditions: for Visual observation for solubility: 1.6 μg API in 3.0 g
Experimental: The solubility of compounds in liquid excipients was determined using visual solubility protocol. In this method, about 3.0 g of excipients was accurately weighed in individually labelled 20 mL scintillation vials (USP Type-I). To these vials, accurately measured 1 (1.67 μg) aliquots of protein was added and tightly closed. […] The vials were kept at ambient temperature without agitation for 72 hours and visually inspected at 0, 24, and 72 hours.

[2] = tested on: human reconstructed nasal epithelium model (NAS-100-BETA by MatTek); test: Nasal irritation, MTT tissue viability; format: cell-based
Experimental: (§1) The formulations were performed using an increased dosage (e.g., 40-50 μg) compared to the study in Example 3.
(§2) Cultures were maintained and treated topically and at the end of the treatment, tissue viability was determined using the MTT conversion assay as described in Example 3. The Relative Tissue Viability values were determined and used to classify the test articles as irritant or non-irritants according to the assay criteria. As a secondary output, levels of the proinflammatory mediator IL-1α were determined as described in Example 3.

[3] = tested on: IL-1α; test: Nasal irritation, IL-1α levels; format: cell-based, human
Experimental: as §1, §2

[4] = tested on: reconstructed human skin model (Epiderm, EPI-200-X); test: Skin permeation of rhACE-2 (ACE-2 ELISA of receiving medium); format: in vitro ADME; conditions: for skin permeation value (rhACE-2 in receiving medium): 50 μg/ml rhACE-2 in formulation
Experimental: In order to determine the skin permeation profile, a reconstructed human skin model (Epiderm, EPI-200-X manufactured by MatTek Corporation) was used. This model includes normal, human-derived epidermal keratinocytes (NHEK) which have been cultured to form a multilayered, highly differentiated model of the human epidermis. The NHEK cells are cultured on specially-prepared cell culture inserts using serum free medium and attain levels of differentiation. The EpiDerm Skin Model closely parallels human skin, thus providing a useful in vitro means to assess dermal irritancy and toxicology.
After an acclimation period, the skin cultures were treated in triplicates PBS (negative control/baseline), vehicle formulation (“Placebo”), and formulation containing 50 μg/ml ACE-2. At the end of each time point culture medium was completely removed and replaced with fresh medium. The amount of permeated ACE-2 over time was determined by ACE-2 ELISA. Levels of ACE-2 in the receiving medium were determined at the following timepoints: 0 minutes, 5 minutes, 30 minutes, 60 minutes, 180 minutes, 540 minutes, 1260 minutes, and 1440 minutes.

[5] = tested on: human nasal epithelial cultures (EpiAirway, NAS-100-beta); test: Nasal permeation of rhACE-2 (ELISA of receiving medium); format: in vitro ADME; conditions: for nasal permeation value (rhACE-2 in receiving medium): 50 μg/ml rhACE-2 in formulation
Source text: In order to determine the nasal permeation profile, human nasal epithelial cultures (EpiAirway, NAS-100-beta manufactured by MatTek Corporation) were used.
At the end of each time point, culture medium was completely removed and replaced with fresh medium.

[6] = tested on: EpiDerm™ cultures (EPI-200); test: In Vitro EpiDerm Skin Irritation Test (EPI-200-SIT), MTT tissue viability; format: cell-based, human
[7] = tested on: IL-1α; test: EpiDerm skin irritation, IL-1α secretion (Quantikine ELISA); format: cell-based, human; conditions: EpiDerm cultures, media collected after 24 hours; rhACE-2 2.5-40 μg/ml
[8] = tested on: hCoV-19/USA-WA1/2020 (WA); format: cell-based, SARS-CoV-2; conditions: in µg/mL
[9] = tested on: hCoV-19/South Africa/KRISP-K005325/2020 (SA); format: cell-based, SARS-CoV-2

rhACE-2
Visual observation for solubility ([1]; in 1X PBS, 24 hr): Clear solution
Visual observation for solubility ([1]; in 1X PBS, 72 hr): Clear solution
Visual observation for solubility ([1]; in 1X PBS, Initial Observation): Clear solution
Visual observation for solubility ([1]; in Glycerin, 24 hr): Clear solution
Visual observation for solubility ([1]; in Glycerin, 72 hr): Clear solution
Visual observation for solubility ([1]; in Glycerin, Initial Observation): Clear solution
Visual observation for solubility ([1]; in Hexylene Glycol, 24 hr): Clear solution
Visual observation for solubility ([1]; in Hexylene Glycol, 72 hr): Clear solution
Visual observation for solubility ([1]; in Hexylene Glycol, Initial Observation): Clear solution
Visual observation for solubility ([1]; in Polyethylene Glycol 400, 24 hr): Clear solution
Visual observation for solubility ([1]; in Polyethylene Glycol 400, 72 hr): Clear solution
Visual observation for solubility ([1]; in Polyethylene Glycol 400, Initial Observation): Clear solution
Visual observation for solubility ([1]; in Polysorbate 20, 24 hr): Clear yellow
Visual observation for solubility ([1]; in Polysorbate 20, 72 hr): Clear yellow
Visual observation for solubility ([1]; in Polysorbate 20, Initial Observation): Clear yellow
Visual observation for solubility ([1]; in Propylene Glycol, 24 hr): Clear solution
Visual observation for solubility ([1]; in Propylene Glycol, 72 hr): Clear solution
Visual observation for solubility ([1]; in Propylene Glycol, Initial Observation): Clear solution
Visual observation for solubility ([1]; in Purified Water, USP, 24 hr): Clear solution
Visual observation for solubility ([1]; in Purified Water, USP, 72 hr): Clear solution
Visual observation for solubility ([1]; in Purified Water, USP, Initial Observation): Clear solution
solubility in all the excipients tested ([1]; propylene glycol, hexylene glycol, glycerin, polyethylene glycol 400, polysorbate 20, purified water, PBS): readily soluble
classification as nasal irritant ([2]; all tested concentrations, 3.06-50 μg/ml): nasal non-irritants
average IL-1α levels ([3]; rhACE-2 3.06 μg/ml): 0 ng/mL
average IL-1α levels ([3]; rhACE-2 6.125 μg/ml): 0 ng/mL
skin permeation value (rhACE-2 in receiving medium) ([4]; 5 minutes post application): 0.402 ng/ml
skin permeation value (rhACE-2 in receiving medium) ([4]; 30 minutes post application): 0.578 ng/ml
skin permeation value (rhACE-2 in receiving medium) ([4]; 60 minutes post application): 1.28 ng/ml
skin permeation value (rhACE-2 in receiving medium) ([4]; 180 minutes post application): 0.0196 ng/ml
skin permeation value (rhACE-2 in receiving medium) ([4]; 540 minutes post application): 0 ng/ml
skin permeation value (rhACE-2 in receiving medium) ([4]; 1260 minutes post application): 0.98 ng/ml
skin permeation value (rhACE-2 in receiving medium) ([4]; 1440 minutes post application): 0.029 ng/ml
permeation through reconstructed human skin tissue ([4]; at 50 μg/ml): minimal to negligible permeation
nasal permeation value (rhACE-2 in receiving medium) ([5]; 5 minutes post application): 0.035 ng/ml
nasal permeation value (rhACE-2 in receiving medium) ([5]; 180 minutes post application): 0.06 ng/ml
nasal permeation value (rhACE-2 in receiving medium) ([5]; 540 minutes post application): 0.413 ng/ml
nasal permeation value (rhACE-2 in receiving medium) ([5]; 1260 minutes post application): 1.03 ng/ml
nasal permeation value (rhACE-2 in receiving medium) ([5]; 1440 minutes post application): 0.249 ng/ml
permeation through reconstructed human nasal tissue ([5]; at 50 μg/ml): minimal to negligible permeation

CCCCCCCCCCCCOS(=O)(=O)[O-].[Na+] [5% SDS]
mean viability of positive control tissues expressed as percentage of the negative control tissues [6]: 4%
secretion of IL-1α [7]: significant increase in IL-1α secretion
mean viability of positive control tissues expressed as percentage of the negative control tissues ([2]; nasal epithelium model): 2%

ACE2
EC50 [8]: 9.206
EC50 [9]: 1.18 µg/mL
